Key:
[1] = tested on: T1, PbTTA; assay: TTA-ADH coupled assay (NADH depletion at […] nm), non-linear regression; format: biochemical; settings: 1 mM phenylacetaldehyde (non-saturating), PLP, MgCl2, phosphate pH 7.5, 30 °C; read-out: apparent KM
T1 construct: N-terminal hexahistidine-SUMO tag with TEV site kept (screen done with SUMO fusion intact), E. coli BL21

[2] = tested on: C[C@@H](O)[C@H](N)C(=O)O; assay: purified protein; settings: 1 mM phenylacetaldehyde (non-saturating), PLP, MgCl2, phosphate pH 7.5, 30 °C
[3] = substrate: C[C@@H](O)[C@H](N)C(=O)O; assay: purified protein; format: biochemical, Pseudomonas fluorescens; settings: 1 mM phenylacetaldehyde (non-saturating), PLP, MgCl2, phosphate pH 7.5, 30 °C

## C[C@@H](O)[C@H](N)C(=O)O [L-Thr]
[1]
  Km: 10.9 mM

## PiTTA (Pseudomonas sp. Irchel s3a18)
[2]
  Km: 35.8 (21.0, 41.5) mM
  kcat: 276.4 (260, 294.7) min-1

## s-KaTTA (Kitasatospora aureofaciens)
[2]
  Km: 19.1 mM

B1: ObiH (Pseudomonas fluorescens) (protein)
chain: MSNVKQQTAQIVDWLSSTLGKDHQYREDSLSLTANENYPSALVRLTSGSTAGAFYHCSFPFEVPAGEWHFPEPGHMNAIADQVRDLGKTLIGAQAFDWRPNGGSTAEQALMLAACKPGEGFVHFAHRDGGHFALESLAQKMGIEIFHLPVNPTSLLIDVAKLDEMVRRNPHIRIVILDQSFKLRWQPLAEIRSVLPDSCTLTYDMSHDGGLIMGGVFDSPLSCGADIVHGNTHKTIPGPQKGYIGFKSAQHPLLVDTSLWVCPHLQSNCHAEQLPPMWVAFKEMELFGRDYAAQIVSNAKTLARHLHELGLDVTGESFGFTQTHQVHFAVGDLQKALDLCVNSLHAGGIRSTNIEIPGKPGVHGIRLGVQAMTRRGMKEKDFEVVARFIADLYFKKTEPAKVAQQIKEFLQAFPLAPLAYSFDNYLDEELLAAVYQGAQR
notes: N-terminal hexahistidine tag, expressed in E. coli BL21, codon-optimised gene; tag kept
[3]
  Km: 29.5 mM

Reference: article PMC10495429, “Discovery of L-threonine transaldolases for enhanced biosynthesis of beta-hydroxylated amino acids” (Communications Biology, 2023)
